± gives the standard deviation of the averaged measurements.

The data set can be described thus: total protein half-life in vivo (active degradation + dilution); higher = more stable protein.
[1] abbreviates: E. coli NCM3722 delta-clpP delta-lon delta-hslV, growth: N-lim chemostat, doubling time 6 h.
Setting [2] is: E. coli NCM3722 delta-clpP, growth: N-lim chemostat, doubling time 6 h.
Where [3] appears, read: E. coli NCM3722 delta-hslV, growth: N-lim chemostat, doubling time 6 h.
Setting [4] is: E. coli NCM3722 delta-lon, growth: N-lim chemostat, doubling time 6 h.
Setting [5] is: E. coli NCM3722 delta-smpB, growth: N-lim chemostat, doubling time 6 h.
Setting [6] is: wild type E. coli NCM3722, growth: C-lim chemostat, doubling time 3 h.
The mark [7] stands for this setting: wild type E. coli NCM3722, growth: C-lim chemostat, doubling time 6 h.
Setting [8] is: wild type E. coli NCM3722, growth: C-lim chemostat, doubling time 12 h.
Setting [9] is: wild type E. coli NCM3722, growth: N-lim chemostat, doubling time 6 h.
The mark [10] stands for this setting: wild type E. coli NCM3722, growth: N-lim chemostat, doubling time 12 h.
[11] abbreviates: wild type E. coli NCM3722, growth: P-lim chemostat, doubling time 6 h.
The mark [12] stands for this setting: wild type E. coli NCM3722, growth: P-lim chemostat, doubling time 12 h.

Take “MKWLCSVGIAVSLALQPALADDLFGNHPLTPEARDAFVTELLKKMTVDEKIGQLRLISVGPDNPKEAIREMIKDGQVGAIFNTVTRQDIRAMQDQVMELSRLKIPLFFAYDVLHGQRTVFPISLGLASSFNLDAVKTVGRVSAYEAADDGLNMTWAPMVDVSRDPRWGRASEGFGEDTYLTSTMGKTMVEAMQGKSPADRYSVMTSVKHFAAYGAVEGGKEYNTVDMSPQRLFNDYMPPYKAGLDAGSGAVMVALNSLNGTPATSDSWLLKDVLRDQWGFKGITVSDHGAIKELIKHGTAADPEDAVRVALKSGINMSMSDEYYSKYLPGLIKSGKVTMAELDDAARHVLNVKYDMGLFNDPYSHLGPKESDPVDTNAESRLHRKEAREVARESLVLLKNRLETLPLKKSATIAVVGPLADSKRDVMGSWSAAGVADQSVTVLTGIKNAVGENGKVLYAKGANVTSDKGIIDFLNQYEEAVKVDPRSPQEMIDEAVQTAKQSDVVVAVVGEAQGMAHEASSRTDITIPQSQRDLIAALKATGKPLVLVLMNGRPLALVKEDQQADAILETWFAGTEGGNAIADVLFGDYNPSGKLPMSFPRSVGQIPVYYSHLNTGRPYNADKPNKYTSRYFDEANGALYPFGYGLSYTTFTVSDVKLSAPTMKRDGKVTASVQVTNTGKREGATVVQMYLQDVTASMSRPVKQLKGFEKITLKPGETQTVSFPIDIEALKFWNQQMKYDAEPGKFNVFIGTDSARVKKGEFELL”: the “total protein half-life in vivo” value under setting [1] is 6.82 ± 0.31 h; the “total protein half-life in vivo” value under setting [2] was found to be 6.82 ± 0.92 h; the “total protein half-life in vivo” value under setting [3] worked out at 6.51 ± 0.073 h; the “total protein half-life in vivo” value under setting [4] is 6.84 ± 0.088 h; the “total protein half-life in vivo” value under setting [5] came out at 5.91 ± 0.13 h; the “total protein half-life in vivo” value under setting [6] is 3.14 ± 0.092 h. Besides, the “total protein half-life in vivo” value under setting [7] amounted to 6.17 ± 0.12 h; the “total protein half-life in vivo” value under setting [8] came to 14.2 ± 1.2 h; the “total protein half-life in vivo” value under setting [9] came to 6.21 ± 0.43 h; the “total protein half-life in vivo” value under setting [10] was found to be 13.9 ± 0.67 h; the “total protein half-life in vivo” value under setting [11] stood at 6.21 ± 0.027 h; the “total protein half-life in vivo” value under setting [12] amounted to 14.5 ± 1.1 h.

As to “MAKEKKRGFFSWLGFGQKEQTPEKETEVQNEQPVVEEIVQAQEPVKASEQAVEEQPQAHTEAEAETFAADVVEVTEQVAESEKAQPEAEVVAQPEPVVEETPEPVAIEREELPLPEDVNAEAVSPEEWQAEAETVEIVEAAEEEAAKEEITDEELETALAAEAAEEAVMVVPPAEEEQPVEEIAQEQEKPTKEGFFARLKRSLLKTKENLGSGFISLFRGKKIDDDLFEELEEQLLIADVGVETTRKIITNLTEGASRKQLRDAEALYGLLKEEMGEILAKVDEPLNVEGKAPFVILMVGVNGVGKTTTIGKLARQFEQQGKSVMLAAGDTFRAAAVEQLQVWGQRNNIPVIAQHTGADSASVIFDAIQAAKARNIDVLIADTAGRLQNKSHLMEELKKIVRVMKKLDVEAPHEVMLTIDASTGQNAVSQAKLFHEAVGLTGITLTKLDGTAKGGVIFSVADQFGIPIRYIGVGERIEDLRPFKADDFIEALFARED”, the “total protein half-life in vivo” value under setting [1] worked out at 5.949 ± 0.013 h; the “total protein half-life in vivo” value under setting [2] came to 6.16 ± 0.62 h; the “total protein half-life in vivo” value under setting [3] was 6.29 ± 0.82 h; the “total protein half-life in vivo” value under setting [4] amounted to 5.53 ± 0.3 h; the “total protein half-life in vivo” value under setting [5] came out at 5.61 ± 0.034 h; the “total protein half-life in vivo” value under setting [6] was 3.038 ± 0.019 h. The “total protein half-life in vivo” value runs as follows: under setting [7], 5.835 ± 0.012 h; under setting [8], 11.1 ± 1.8 h; under setting [9], 5.94 ± 0.28 h; under setting [10], 10.7 ± 0.25 h; under setting [11], 5.64 ± 0.21 h; under setting [12], 11.92 ± 0.0035 h.

Regarding “MATIHVDGKEYEVNGADNLLEACLSLGLDIPYFCWHPALGSVGACRQCAVKQYQNAEDTRGRLVMSCMTPASDGTFISIDDEEAKQFRESVVEWLMTNHPHDCPVCEEGGNCHLQDMTVMTGHSFRRYRFTKRTHRNQDLGPFISHEMNRCIACYRCVRYYKDYADGTDLGVYGAHDNVYFGRPEDGTLESEFSGNLVEICPTGVFTDKTHSERYNRKWDMQFAPSICQQCSIGCNISPGERYGELRRIENRYNGTVNHYFLCDRGRFGYGYVNLKDRPRQPVQRRGDDFITLNAEQAMQGAADILRQSKKVIGIGSPRASVESNFALRELVGEENFYTGIAHGEQERLQLALKVLREGGIYTPALREIESYDAVLVLGEDVTQTGARVALAVRQAVKGKAREMAAAQKVADWQIAAILNIGQRAKHPLFVTNVDDTRLDDIAAWTYRAPVEDQARLGFAIAHALDNSAPAVDGIEPELQSKIDVIVQALAGAKKPLIISGTNAGSLEVIQAAANVAKALKGRGADVGITMIARSVNSMGLGIMGGGSLEEALTELETGRADAVVVLENDLHRHASAIRVNAALAKAPLVMVVDHQRTAIMENAHLVLSAASFAESDGTVINNEGRAQRFFQVYDPAYYDSKTVMLESWRWLHSLHSTLLSREVDWTQLDHVIDAVVAKIPELAGIKDAAPDATFRIRGQKLAREPHRYSGRTAMRANISVHEPRQPQDIDTMFTFSMEGNNQPTAHRSQVPFAWAPGWNSPQAWNKFQDEVGGKLRFGDPGVRLFETSENGLDYFTSVPARFQPQDGKWRIAPYYHLFGSDELSQRAPVFQSRMPQPYIKLNPADAAKLGVNAGTRVSFSYDGNTVTLPVEIAEGLTAGQVGLPMGMSGIAPVLAGAHLEDLKEAQQ”, the “total protein half-life in vivo” value under setting [1] was 6.02 ± 0.15 h; the “total protein half-life in vivo” value under setting [2] stood at 5.98 ± 0.38 h; the “total protein half-life in vivo” value under setting [3] came to 6.1 ± 0.34 h; the “total protein half-life in vivo” value under setting [4] is 5.92 ± 0.37 h; the “total protein half-life in vivo” value under setting [5] is 5.61 ± 0.29 h; the “total protein half-life in vivo” value under setting [6] came out at 3.14 ± 0.12 h. For the same sequence, the “total protein half-life in vivo” value worked out at 5.723 ± 0.011 h under setting [7]; 10.3 ± 0.23 h under setting [8]; 5.63 ± 0.15 h under setting [9]; 11 ± 0.17 h under setting [10]; 5.72 ± 0.076 h under setting [11]; 10.25 ± 0.082 h under setting [12].

The values above are taken from the supplement of paper PMC11246515.
